Assay results published in patent US20230009161A1.
pKd: −log10 of the molar value.

Target: recombinant human ErbB2/HER2 Fc chimera protein (R&D Systems, cat no. 1129-ER) (human) (UniProt P04626)

Substance: IgG1^HER2 (monoclonal anti-HER2 IgG1; Trastuzumab) (antibody)
- pKd: 9.14
